This is an account of results in US20250171542A1 (ADEPT THERAPEUTICS, published 2025).

Experiment [1] deals with T1, human PD-L1 expressed on cell surface (human, UniProt Q9NZQ7 19-290). Kind of experiment: cell-based or functional assay.
Experiment [2] has as its target T1, human PD-L1 expressed on cell surface. The experiment can be described thus: flow cytometry, MDA-MB-231-GFP cells. (Flow cytometry measures light scatter and fluorescence of single cells or particles in a stream.)
Experiment [3] deals with T2, PD-L2 (Sino Biological, Cat #10292-H08H) (UniProt Q9BQ51 20-219).
T2 sequence (looked up): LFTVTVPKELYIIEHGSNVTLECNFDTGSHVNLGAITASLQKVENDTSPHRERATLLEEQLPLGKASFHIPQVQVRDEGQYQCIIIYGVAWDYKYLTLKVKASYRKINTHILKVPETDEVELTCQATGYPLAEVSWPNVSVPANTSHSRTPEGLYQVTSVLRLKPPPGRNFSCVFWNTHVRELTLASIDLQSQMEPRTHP
Kind of experiment: ELISA. Background: ELISA stands for enzyme-linked immunosorbent assay.

Experiment [4] concerns the target T3, B7-H3 (Sino Biological, Cat #11188-H08H) (UniProt Q5ZPR3 29-461).
T3 sequence (looked up): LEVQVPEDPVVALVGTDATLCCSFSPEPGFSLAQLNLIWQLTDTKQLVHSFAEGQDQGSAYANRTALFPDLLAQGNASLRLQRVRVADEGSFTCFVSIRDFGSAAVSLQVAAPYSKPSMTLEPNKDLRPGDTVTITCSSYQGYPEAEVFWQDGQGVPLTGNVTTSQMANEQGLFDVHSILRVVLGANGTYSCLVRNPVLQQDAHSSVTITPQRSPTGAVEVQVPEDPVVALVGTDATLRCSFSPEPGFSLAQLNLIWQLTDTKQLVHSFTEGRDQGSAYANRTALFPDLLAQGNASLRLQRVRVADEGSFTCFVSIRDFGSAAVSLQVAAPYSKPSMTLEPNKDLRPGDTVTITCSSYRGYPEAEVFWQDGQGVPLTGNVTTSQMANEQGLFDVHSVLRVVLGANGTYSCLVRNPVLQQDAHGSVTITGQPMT
Kind of experiment: ELISA.

For experiment [5], the target named is T4, canine PD-L1 (Acro Biosystems, Cat #PDL-C52H4) (canine, UniProt E2RKZ5 19-236).
T4 construct: not shown: The vendor's tag, probably a polyhistidine tag
T4 sequence: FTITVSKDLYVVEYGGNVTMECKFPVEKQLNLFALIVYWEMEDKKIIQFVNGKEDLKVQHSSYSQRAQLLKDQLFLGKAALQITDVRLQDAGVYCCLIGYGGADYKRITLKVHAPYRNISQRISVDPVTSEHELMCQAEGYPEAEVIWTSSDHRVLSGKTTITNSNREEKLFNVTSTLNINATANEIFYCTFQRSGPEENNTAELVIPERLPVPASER
Kind of experiment: ELISA.

Experiment [6] deals with T5, CD80 (Sino Biological, Cat #10698-H08H) (UniProt P33681 35-242).
T5 sequence (looked up): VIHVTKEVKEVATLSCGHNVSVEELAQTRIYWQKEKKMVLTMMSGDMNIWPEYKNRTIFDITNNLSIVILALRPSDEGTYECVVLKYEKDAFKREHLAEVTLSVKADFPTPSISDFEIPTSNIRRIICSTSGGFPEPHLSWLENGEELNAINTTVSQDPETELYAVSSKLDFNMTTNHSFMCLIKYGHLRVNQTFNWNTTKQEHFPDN
Kind of experiment: ELISA.

In experiment [7] the target is T6, CD86 (Sino Biological, Cat #10699-H08H) (UniProt P42081 24-245).
T6 sequence (looked up): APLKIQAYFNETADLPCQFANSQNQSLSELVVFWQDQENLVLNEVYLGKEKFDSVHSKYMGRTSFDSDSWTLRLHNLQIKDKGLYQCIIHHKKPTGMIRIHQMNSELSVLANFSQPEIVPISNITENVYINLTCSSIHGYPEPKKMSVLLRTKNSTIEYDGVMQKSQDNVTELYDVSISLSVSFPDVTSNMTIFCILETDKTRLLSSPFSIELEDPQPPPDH
The experiment can be described thus: ELISA.

Experiment [8] has as its target T7, rat PD-L1 (Sino Biological, Cat #80450-R08H) (rat, UniProt D4AE25 19-239).
T7 construct: not shown: The vendor's polyhistidine tag
Kind of experiment: ELISA.

The target in experiment [9] is T8, BH-H2 (Sino Biological, Cat #11559-H08H) (UniProt O75144 19-258).
T8 sequence (looked up): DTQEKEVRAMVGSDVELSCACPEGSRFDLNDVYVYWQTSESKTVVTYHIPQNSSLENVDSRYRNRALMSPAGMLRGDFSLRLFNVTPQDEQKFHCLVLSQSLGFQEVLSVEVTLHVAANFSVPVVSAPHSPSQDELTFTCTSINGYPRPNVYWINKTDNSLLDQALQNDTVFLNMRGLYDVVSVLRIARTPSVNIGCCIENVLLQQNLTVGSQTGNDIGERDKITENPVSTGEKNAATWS
Kind of experiment: ELISA.

The target in experiment [10] is mouse PD-L1 (Sino Biological, Cat #50010-M08H) (mouse, UniProt Q9EP73 19-238). The experiment can be described thus: ELISA.
Chain of mouse PD-L1 (Sino Biological, Cat #50010-M08H) (Q9EP73 19-238 limits assumed, stated change not applied): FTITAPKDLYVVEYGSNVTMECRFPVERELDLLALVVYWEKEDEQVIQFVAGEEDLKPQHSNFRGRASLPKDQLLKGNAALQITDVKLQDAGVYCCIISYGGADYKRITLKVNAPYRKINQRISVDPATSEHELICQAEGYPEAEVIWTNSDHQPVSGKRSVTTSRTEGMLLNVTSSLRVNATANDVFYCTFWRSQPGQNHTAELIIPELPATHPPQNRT

T1 sequence (Q9NZQ7 19-290 limits assumed): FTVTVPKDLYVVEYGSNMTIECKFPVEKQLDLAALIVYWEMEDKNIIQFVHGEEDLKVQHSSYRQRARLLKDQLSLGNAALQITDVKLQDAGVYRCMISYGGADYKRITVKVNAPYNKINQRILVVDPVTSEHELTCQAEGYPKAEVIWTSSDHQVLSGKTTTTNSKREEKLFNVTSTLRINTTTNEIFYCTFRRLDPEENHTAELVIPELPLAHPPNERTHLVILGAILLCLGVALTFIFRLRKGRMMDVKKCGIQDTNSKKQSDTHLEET
T7 sequence (D4AE25 entry or part of it R08H R08H limits assumed): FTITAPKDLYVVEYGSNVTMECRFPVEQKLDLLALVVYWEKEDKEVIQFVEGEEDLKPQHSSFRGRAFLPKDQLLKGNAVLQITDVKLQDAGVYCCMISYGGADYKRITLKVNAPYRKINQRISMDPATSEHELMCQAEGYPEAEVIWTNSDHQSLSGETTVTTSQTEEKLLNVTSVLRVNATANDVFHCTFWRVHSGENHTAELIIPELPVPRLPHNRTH

B1: 33H7 (antibody, human IgG1, V domains shown)
VH: QEQLVESGGGLVQPEGSLTVTCTASGFDLSRYFYMSWVRQAPGKGLEWIASISTGSDITDYASWAKGRFTISKTSSTTVTLQMTTLTAADTAIYFCARWTSGGGGFGLWGPGTLVTVSS
VL: QVLTQTASPVSAAVGGTVTLNCQSSQSIYNNYLSWYQQRAGQPPKLLIYSTATLASGVPSRFKGSGSGTQFTLTISEIQCEDAATYYCQGYYSGYIWTFGGGTEVVVK
In general, EC50 refers to the concentration that produces a half-maximal response. Consider B1, for which the “Internalization (%), FACS, 0.25 µg/ml, 2 h” value in experiment [1] was determined as 15.2%. Besides, the “Internalization (%), FACS, 0.25 µg/ml, 4 h” value in experiment [1] was determined as 12.3%. Also, the “Internalization (%), FACS, 0.5 µg/ml, 2 h” value in [1] turned out to be 17%. In addition, the “Internalization (%), FACS, 0.5 µg/ml, 4 h” value in experiment [1] worked out at 14.2%. The “Internalization (%), FACS, 1 µg/ml, 2 h” value in experiment [1] was 14.4%. For the same molecule, the “Internalization (%), FACS, 1 µg/ml, 4 h” value in experiment [1] is 12.4%. Moreover, the “Internalization (%), FACS, 2 µg/ml, 2 h” value in experiment [1] was determined as 17.8%. Moreover, the “Internalization (%), FACS, 2 µg/ml, 4 h” value in experiment [1] worked out at 12.6%. This molecule came in with an EC50 in experiment [2] of 0.34 nM. In addition, the binding result in experiment [3], in experiment [4], in experiment [5], in experiment [6], in [7] and in [8] was “no binding” in each case. In addition, the binding result in experiment [9] and in experiment [10] was “no binding” each time.
